The chains are these.
T1: hiR1-FL-WT-T7 (human, UniProt Q96CC6 1-855)
T1 construct: on MEF-DKO cells
T1 sequence: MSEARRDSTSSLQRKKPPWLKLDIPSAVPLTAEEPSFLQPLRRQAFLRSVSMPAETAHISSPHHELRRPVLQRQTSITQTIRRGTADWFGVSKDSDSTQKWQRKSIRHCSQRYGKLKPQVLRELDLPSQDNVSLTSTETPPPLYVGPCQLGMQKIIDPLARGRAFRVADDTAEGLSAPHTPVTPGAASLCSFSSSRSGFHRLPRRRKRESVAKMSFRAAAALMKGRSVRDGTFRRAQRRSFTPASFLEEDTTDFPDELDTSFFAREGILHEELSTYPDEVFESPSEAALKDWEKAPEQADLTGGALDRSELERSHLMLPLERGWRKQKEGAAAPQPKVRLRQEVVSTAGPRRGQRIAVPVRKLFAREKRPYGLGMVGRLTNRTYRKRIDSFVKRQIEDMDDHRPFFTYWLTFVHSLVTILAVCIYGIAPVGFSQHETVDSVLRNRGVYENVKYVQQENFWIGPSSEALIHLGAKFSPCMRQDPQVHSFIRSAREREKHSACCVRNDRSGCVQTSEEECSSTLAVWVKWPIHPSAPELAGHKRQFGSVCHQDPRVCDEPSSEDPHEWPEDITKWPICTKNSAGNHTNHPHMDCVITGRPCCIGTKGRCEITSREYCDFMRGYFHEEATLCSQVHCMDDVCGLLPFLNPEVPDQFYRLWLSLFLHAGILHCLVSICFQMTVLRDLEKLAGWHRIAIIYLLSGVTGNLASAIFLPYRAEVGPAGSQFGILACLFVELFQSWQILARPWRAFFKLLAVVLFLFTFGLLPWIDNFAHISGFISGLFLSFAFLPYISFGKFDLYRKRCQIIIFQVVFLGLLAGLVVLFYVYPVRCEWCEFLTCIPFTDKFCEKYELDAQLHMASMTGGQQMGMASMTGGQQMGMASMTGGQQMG

T2: miR2-FL-WT-T7 (mouse, UniProt Q80WQ6 1-827)
T2 construct: on MEF-DKO cells
T2 sequence: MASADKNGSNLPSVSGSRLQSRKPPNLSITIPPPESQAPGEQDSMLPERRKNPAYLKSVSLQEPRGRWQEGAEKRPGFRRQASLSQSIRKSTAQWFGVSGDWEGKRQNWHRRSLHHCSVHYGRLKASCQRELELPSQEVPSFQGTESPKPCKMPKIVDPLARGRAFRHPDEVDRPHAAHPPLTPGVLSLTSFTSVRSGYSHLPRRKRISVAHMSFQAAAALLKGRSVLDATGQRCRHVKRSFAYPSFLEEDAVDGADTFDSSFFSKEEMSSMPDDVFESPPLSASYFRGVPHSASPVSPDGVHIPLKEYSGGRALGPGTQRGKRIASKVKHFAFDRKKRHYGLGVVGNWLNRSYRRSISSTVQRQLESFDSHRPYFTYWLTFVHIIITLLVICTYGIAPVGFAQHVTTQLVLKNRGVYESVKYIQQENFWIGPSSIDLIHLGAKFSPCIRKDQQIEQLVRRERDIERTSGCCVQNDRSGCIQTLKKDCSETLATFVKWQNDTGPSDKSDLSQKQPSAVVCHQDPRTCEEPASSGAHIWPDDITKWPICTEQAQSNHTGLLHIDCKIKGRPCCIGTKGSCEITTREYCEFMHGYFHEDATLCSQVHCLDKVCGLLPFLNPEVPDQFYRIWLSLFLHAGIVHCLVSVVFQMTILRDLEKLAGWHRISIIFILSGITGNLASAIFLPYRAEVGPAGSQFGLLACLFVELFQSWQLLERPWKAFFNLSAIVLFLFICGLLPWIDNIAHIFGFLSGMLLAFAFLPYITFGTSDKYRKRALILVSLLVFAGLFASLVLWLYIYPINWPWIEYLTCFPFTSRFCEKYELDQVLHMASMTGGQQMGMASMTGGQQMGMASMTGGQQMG

T3: hiR2-FL-P533-T7 (deletion of P533) (human, UniProt Q6PJF5 1-856)
T3 construct: single residue deletion, not a substitution; on MEF-DKO cells
T3 sequence: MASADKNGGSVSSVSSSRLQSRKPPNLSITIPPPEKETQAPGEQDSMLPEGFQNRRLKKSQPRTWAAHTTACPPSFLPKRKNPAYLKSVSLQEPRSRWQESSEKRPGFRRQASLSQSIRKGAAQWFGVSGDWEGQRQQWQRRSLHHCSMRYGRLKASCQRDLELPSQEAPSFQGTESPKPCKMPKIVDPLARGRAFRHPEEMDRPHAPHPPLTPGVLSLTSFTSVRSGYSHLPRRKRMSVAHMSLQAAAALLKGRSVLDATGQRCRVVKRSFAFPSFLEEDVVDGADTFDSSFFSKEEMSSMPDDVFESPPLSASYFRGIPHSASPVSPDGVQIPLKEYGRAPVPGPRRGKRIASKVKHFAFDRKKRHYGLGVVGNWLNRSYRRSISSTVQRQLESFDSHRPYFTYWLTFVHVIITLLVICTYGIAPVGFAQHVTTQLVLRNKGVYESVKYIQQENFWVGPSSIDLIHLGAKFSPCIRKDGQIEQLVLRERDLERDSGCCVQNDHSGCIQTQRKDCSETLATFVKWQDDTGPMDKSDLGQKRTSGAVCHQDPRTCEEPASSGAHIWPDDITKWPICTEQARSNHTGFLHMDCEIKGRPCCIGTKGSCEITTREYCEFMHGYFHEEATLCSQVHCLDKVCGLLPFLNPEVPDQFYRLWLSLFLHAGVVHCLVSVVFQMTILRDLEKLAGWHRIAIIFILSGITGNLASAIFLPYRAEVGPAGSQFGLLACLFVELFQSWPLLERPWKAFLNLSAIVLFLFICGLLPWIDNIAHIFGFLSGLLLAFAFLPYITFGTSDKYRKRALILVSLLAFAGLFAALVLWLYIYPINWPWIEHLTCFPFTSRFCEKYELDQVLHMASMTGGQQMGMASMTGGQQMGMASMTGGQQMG

B1: antibody 5 (antibody, V domains shown)
VH: QVTLKESGPGILQPSQTLSLTCSFSGFSLSTFGMGVGWIRQPSGKGLEWLAHIWWDDEKYYNSALKSRLTISKATSKNQAFLKIANVDTADTATYYCARISNYGSNYWYFNVWGTGTTVTVSS
VL: QVVLTQSPALMSASPGEKVTMTCSAGSSVSCMYWYQQKPGSSPRVLIYDTSNLASGVPARFTGSGSGTSYSLTISRMEAEDAASYYCQQWNSYPLTFGAGTKLELK
notes: mouse IgG, kappa light chain; also called clone #5; purified antibody 5
B2: antibody 43 (antibody, V domains shown)
VH: B1 VH with T3A, P42S, H52N, E58D, S63P, A74D, T75A, S101G, N111D
VL: QIVLTQSPAIMSASPGERVTMTCSANSRISYMYWYQQKPGSSPRLLIYDTSNLASGVPVRFSGSGSGTSYSLTISRMEAEDAATYNCQQWSSYPLTFGAGTKLELK
notes: mouse IgG, kappa light chain; also called clone #43; purified antibody 43
B3: antibody 44 (antibody, V domains shown)
VH: B1 VH with G44E, E58D, S63P, A74D, A80I, A85T, D91E, A98S, S101G, N111D
VL: QIVLTQSPAVMSASPGEKVTMTCTASSSVYYMYWYQQTPGSSPRLLIYDTSNLASGVPVRFSGSGSGTSYSLTISRMEAEDAATYYCQQWNTYPLTFGAGTKLELK
notes: mouse IgG, kappa light chain; also called clone #44; purified antibody 44
B4: antibody 42 (antibody, V domains shown)
VH: B1 VH with F24L, M34R, S63P, A74D, A80V, K83R, S101Q, N111D
VL: B2 VL with Q1L, R18K, S24G, N26T, Y33F, L45V, M77V, A82V, N86Y, S91N
notes: mouse IgG, kappa light chain; also called clone #42; purified antibody 42
B5: antibody 22 (antibody, V domains shown)
VH: B1 VH with A80V
VL: B1 VL with C31Y, S84T
notes: mouse IgG, kappa light chain; also called clone #22; purified antibody 22
B6: antibody 16 (antibody, V domains shown)
VH: QVTLKESGPGILQPSQTLSLTCSFSGFSLSTFALGVGWIRQPSGRGLEWLAHIWWDDDKYYNPALKSRLTISKDTSKNHVFLKIANVDTADTATYYCARITTYYYGMDYWGQGTSVTVSS
VL: DIVLSQSPATLSVTPGDSVSLFCRASQSIGNHLHWYQQESHASPRLLIKYASQSISGIPSRFSGSGSGTDFTLSINSVETEDFGMYFCQQSYNWPLTFGAGTKLELK
notes: mouse IgG, kappa light chain; also called clone #16; purified antibody 16
B7: antibody 3 (antibody, V domains shown)
VH: QVTLKESGPGILQPSQTLSLTCSFSGFSLTTFAMGIGWVRQPSGKGLEWLAHIWWDGEKYNNPVLKSRLTISKDTSKNQVFLRIANVDTPDTATYYCARISSIYYIIDNWGQGTSVTVSS
VL: B6 VL with S5T, D17H, F22S, G30S, H32N, Q38K, E39K, A42E, A51V
notes: mouse IgG, kappa light chain; also called clone #3; purified antibody 3
B8: antibody 48 (antibody, V domains shown)
VH: QVQLQQSGTELVRPGTSVKVSCKASGYAFTNYLIEWVKQRPGQGLEWIGVINPGSGFTKYNEKFKGKATLTADKSSSTVYMHLSSLTSEDSAVYFCARGLYRAMDYWGQGTSVTVSS
VL: DIQMTQSPASQSASLGESVTITCLASQTIATWLAWYQQKPGKSPQLLIYGATTLADGVPSRFSGGGSGTKFSFKISSLQAEDFVSYYCQQLYSTPYTFGGGTKLEIK
notes: mouse IgG, kappa light chain; also called clone #48; purified antibody 48
B9: antibody 50 (antibody, V domains shown)
VH: B8 VH with T9A, T16A, T30S, V79A, H82Q
VL: B8 VL with A30G, G50A, T52A, T53S, S85N, L91I
notes: mouse IgG, kappa light chain; also called clone #50; purified antibody 50
B10: antibody 34 (antibody, V domains shown)
VH: QVTLKESGPGILQPSQTLSLTCSFSGFSLSTFSLGVGWIRQSSGKGLEWLAHIWWDDEKYYNPALKSRLTISKDTSKNQVFLKIANVDAADTATYYCARAYYSKSYYALDYWGQGTSVTVSS
VL: DIQMTQSPSSLSASLGERVSLTCRASQEISGYLSWLQQKPDGTIKRLIYAASTLDSGVPKRFSGSRSGSDYSLAISSLESEDFADYYCLQYANFPFTFGSGTKLEIK
notes: mouse IgG, kappa light chain; also called clone #34; purified antibody 34

Positions count from the first letter of the chain named.

For one assay, the target named is T1, hiR1-FL-WT-T7. Briefly: FACS, MEF-DKO cells, 3 µg/ml. (In flow cytometry, cells or beads pass a laser one at a time.)
As for B1, the “loss of binding vs wild type” value was not below 95%.

As to B2, the “loss of binding vs wild type” value is not below 95%.

For B3, the “loss of binding vs wild type” value is not below 95%.

With B4, the “loss of binding vs wild type” value was not below 95%.

For B5, the “loss of binding vs wild type” value is not below 95%.

Turning to B6, the “loss of binding vs wild type” value is not below 95%.

With B7, the “loss of binding vs wild type” value is not below 95%.

On to B8, for which the “loss of binding vs wild type” value was not below 60%.

Take B9: the “loss of binding vs wild type” value was not below 95%.

Take B10: the “loss of binding vs wild type” value was not below 95%.

The target of a further assay is T2, miR2-FL-WT-T7. Briefly: FACS on MEF-DKO cells.
With B1, the binding result is listed as “no binding (tested: 3 µg/ml)”.

Consider B2, for which the binding result is given as “no binding (tested: 3 µg/ml)”.

Turning to B3, the binding result is recorded as “no binding (tested: 3 µg/ml)”.

For the molecule B4, the binding result was “no binding (tested: 3 µg/ml)”.

In the case of B5, the binding result is recorded as “no binding (tested: 3 µg/ml)”.

Consider B6, for which the binding result is “no binding (tested: 3 µg/ml)”.

On to B10, for which the binding result is “no binding (tested: 3 µg/ml)”.

A further assay has as its target T3, hiR2-FL-P533-T7 (deletion of P533). As to the kind of experiment: FACS on MEF-DKO cells.
B1: the binding result is listed as “no binding (tested: 3 µg/ml)”.

With B2, the binding result is recorded as “no binding (tested: 3 µg/ml)”.

With B3, the binding result is given as “no binding (tested: 3 µg/ml)”.

With B4, the binding result is “no binding (tested: 3 µg/ml)”.

Turning to B5, the binding result is reported as “no binding (tested: 3 µg/ml)”.

Regarding B6, the binding result is reported as “no binding (tested: 3 µg/ml)”.

As for B7, the binding result is “no binding (tested: 3 µg/ml)”.

Take B10: the binding result is on record as “no binding (tested: 3 µg/ml)”.

The record behind these values is US20240287172A1 (SCIRHOM, published 2024).
